Results as given in patent US20090053225A1 (QUARK PHARMACEUTICALS, published 2009).
Blank lines part the entries; values can stand above or below the binder they belong to.

Key:
[1] = target: T1, CD55 purified from human erythrocytes (human, UniProt P08174 35-353); assay: ELISA with phage and soluble scFv on coated purified antigen
T1 construct: mature; Native protein purified from red cells; coated on plates for ELISA, or incubated with antibody-sensitised sheep erythrocytes (EA-CD55) for the hemolytic assay; also called decay-accelerating factor; DAF
T1 sequence (looked up): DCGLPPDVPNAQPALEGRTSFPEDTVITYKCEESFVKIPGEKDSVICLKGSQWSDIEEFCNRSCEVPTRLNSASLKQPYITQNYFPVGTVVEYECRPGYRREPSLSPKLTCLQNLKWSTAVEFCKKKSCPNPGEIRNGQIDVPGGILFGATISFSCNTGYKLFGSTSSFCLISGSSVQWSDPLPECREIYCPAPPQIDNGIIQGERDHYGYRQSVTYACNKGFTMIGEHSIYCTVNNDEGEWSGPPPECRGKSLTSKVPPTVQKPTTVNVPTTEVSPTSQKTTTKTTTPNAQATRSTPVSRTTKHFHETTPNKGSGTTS
Experimental: (§1) Microtiter plates were coated with 100 μl of the various CRPs (10 μg/ml) followed by 100 μl of phage suspension in MPBS. Anti-M13 peroxidase conjugated mAb was used as a secondary antibody. Data represent mean values±SD of three different experiments.
(§2) The specificity of the selected clones was assessed by ELISA using both phage and soluble scFv (FIG. 1).

[2] = target: T2, CD59 purified from human erythrocytes (human, UniProt P13987 26-102); assay: as above
T2 construct: mature; Native protein purified from red cells; coated on plates for ELISA, or incubated with guinea pig erythrocytes (GPE-CD59) for the reactive lysis test
T2 sequence (looked up): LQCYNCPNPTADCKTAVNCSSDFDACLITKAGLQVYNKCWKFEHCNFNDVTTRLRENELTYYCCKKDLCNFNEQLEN
Experimental: as §1, §2

binding result [1]: no binding
B1: scFv TS-59 (anti-CD59 clone) (scFv)
scFv: DIVLTQSPDSLAVSLGERATINCKSSQSVLYSSNNKNYLAWYQQKPGQPPKLLIYWASTRESGVPDRFSGSGSGTDFTPAISSLQAEDVAVYYCQQYYSTPQLTFGGGTKVDIKSGGSTITSYNVYYTKLSSSGTQVQLQQSGGGVVQPGRSLGLSCAASGFTFSSYGMNWVRQAPGKGLEWVSYISSSSSTIYYADSVKGRFTISRDNSKNTLYLQMNSLRAEDTAVYYCARGPGMDVWGQGTTVTVS
notes: also called Clone anti CD 59; anti-CD59 scFv

binding result [2]: no binding
B2: scFv TS-55 (anti-CD55 clone) (scFv)
scFv: SSELTQEPAVSVALGQTVSITCQGDSLRSYYASWYQQKPGQAPIPVIYGKNNRPSGIPDRFSGSSSGNTASLTITGAQAEDEADYYCSSRDNRGTHRWVFGGGTKLTVLSGGSTITSYNVYYTKLSSSGTQVNLRESGGGLVQPGRSLRLSCAASGFTFDDYAMHWVRQAPGKGLEWVSGISWNSGSIGYADSVKGRFTISRDNAKNSLYLQMNSLRAEDTALYYCAKDRSDRGRLLDYWGLGTLVTVS
notes: also called Clone anti CD 55; anti-CD55 scFv
